Reference: patent US20190002886A1, “SIGNALING CENTERS OF ERYTHROID DIFFERENTIATION” (THE CHILDREN'S MEDICAL CENTER CORPORATION, priority 2017, published 2019)

Test system: human CD34+ cells
Experiment: FACS analysis of erythroid markers CD71 and CD235a on differentiating CD34+ cells
Format: cell-based
Conditions: 25 ng/ml hrBMP4, treated for two days starting from D3 of differentiation
Protocol: To establish the role of BMP signaling in erythroid differentiation, differentiating CD34^+ cells were treated with human recombinant BMP4 (hrBMP4) to activate the pathway, or with dorsomorphin, a known inhibitor of BMP signaling. Knowing that erythroid lineage commitment occurs around D3, differentiating cells were treated for two days starting from D3, to test the effects of these signals on erythrocyte commitment. […] Human CD34+ cells, isolated from peripheral blood of granulocyte colony-stimulating factor-mobilized healthy volunteers, were obtained from the Fred Hutchinson Cancer Research Center. The cells were maintained and differentiated as previously described (Sankaran et al., 2008b; Trompouki et al.,2011). Control and treated stage-matched CD34 cells were washed in PBS and stained with propidium iodide (PI), 1:60 APC-conjugated CD235a (eBioscience, clone HIR2, 17-9987-42), 1:60 FITC-conjugated CD71 (eBioscience, OKT9, 11-0719-42), 1:60 PE-conjugated CD41a (eBioscience, HIP8, 12-0419-42) and 1:60 PE-conjugated CD11b (eBioscience, ICRF44, 12-0118-42). BD Bioscience LSR II flow cytometer was used to record raw FACS data, which were analyzed subsequently using FlowJo 8.6.9 10.0.7 (TreeStar). Human CD34^+ cells, isolated from peripheral blood of granulocyte colony-stimulating factor mobilized healthy volunteers, were purchased from the Fred Hutchinson Cancer Research Center. […]

B1: BMP4: human recombinant BMP4 (R&D) used to activate the BMP pathway (protein)
chain: MIPGNRMLMVVLLCQVLLGGASHASLIPETGKKKVAEIQGHAGGRRSGQSHELLRDFEATLLQMFGLRRRPQPSKSAVIPDYMRDLYRLQSGEEEEEQIHSTGLEYPERPASRANTVRSFHHEEHLENIPGTSENSAFRFLFNLSSIPENEVISSAELRLFREQVDQGPDWERGFHRINIYEVMKPPAEVVPGHLITRLLDTRLVHHNVTRWETFDVSPAVLRWTREKQPNYGLAIEVTHLHQTRTHQGQHVRISRSLPQGSGNWAQLRPLLVTFGHDGRGHALTRRRRAKRSPKHHSQRARKKNKNCRRHSLYVDFSDVGWNDWIVAPPGYQAFYCHGDCPFPLADHLNSTNHAIVQTLVNSVNSSIPKACCVPTELSAISMLYLDEYDKVVLKNYQEMVVEGCGCR
increase in erythroid cell counts (CD71 and CD235a): 1.5-2 fold
